Laboratory results taken from patent publication US20210163622A1 (FATE THERAPEUTICS, published 2021).

Target: T1, human MICA on target cells (human, UniProt Q29983 24-383)
T1 sequence (looked up): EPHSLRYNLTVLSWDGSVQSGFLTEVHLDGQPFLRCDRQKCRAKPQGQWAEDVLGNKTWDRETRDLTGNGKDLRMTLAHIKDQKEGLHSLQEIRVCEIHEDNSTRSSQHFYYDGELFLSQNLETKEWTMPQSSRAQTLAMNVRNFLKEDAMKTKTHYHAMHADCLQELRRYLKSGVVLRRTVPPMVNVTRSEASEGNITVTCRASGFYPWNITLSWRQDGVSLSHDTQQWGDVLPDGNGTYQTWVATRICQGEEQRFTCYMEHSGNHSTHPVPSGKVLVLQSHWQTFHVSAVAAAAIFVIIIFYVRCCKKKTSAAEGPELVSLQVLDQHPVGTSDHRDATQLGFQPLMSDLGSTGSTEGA
Experiment: cell-based or functional assay

B1: MICA/B CAR (chimeric antigen receptor with a MICA/B-binding scFV; version not stated at the assay) (scFv, V domains shown)
VH: QIQLVQSGPELKKPGETVKVSCKASGYMFTNYAMNWVKQAPEKGLKWMGWINTHTGDPTYADDFKGRIAFSLETSASTAYLQINNLKNEDTATYFCVRTYGNYAMDYWGQGTSVTVSS
VL: DIQMTQTTSSLSASLGDRVTISCSASQDISNYLNWYQQKPDGTVKLLIYDTSILHLGVPSRFSGSGSGTDYSLTISNLEPEDIATYYCQQYSKFPRTFGGGTTLEIK
- cytotoxicity of MICA/B CAR+ T cells against MICA+ Nalm6 cells, % Caspase 3/7+ target cells over E:T ratio, 4 h (EC50): ~1.9
- cytotoxicity of MICA/B CAR+ iNK cells against P815 MICA+ cells, % Caspase 3/7+ target cells over E:T ratio, 4 h (EC50): ~5.2
